Source: patent US20100184663A1 (UNIVERSITY OF UTAH RESEARCH FOUNDATION, published 2010)
Where two headings read alike, the source gives them in different places. Bridge positions count the residues as written; N and C are the ends. Square brackets hold non-standard residues; d marks the D form. Ends that are not written are not given here. I, II: the chains in the order shown.

Key:
Assay in all cases: cell-based or functional assay
HIV-1 gp41 (HXB2 strain) [1] = biological target: T1, HIV-1 gp41 (HXB2 strain) (HIV-1 HXB2, UniProt P04578 512-856)
HIV-1 gp41 (HXB2 strain) [2] = biological target: T1, HIV-1 gp41 (HXB2 strain); remark: listed apart in the source
HIV-1 gp41 (HXB2 strain) [3] = biological target: T1, HIV-1 gp41 (HXB2 strain); remark: listed apart in the source
HIV-1 gp41 (JRFL strain) [4] = biological target: HIV-1 gp41 (JRFL strain) (HIV-1 JRFL)
HIV-1 gp41 (JRFL strain) [5] = biological target: HIV-1 gp41 (JRFL strain) (HIV-1 JRFL); remark: listed apart in the source

| Binder | IC50 (HXB2), single-cycle viral infectivity assay (HIV-1 gp41 (HXB2 strain) [2]) | IC50 (HXB2), pseudovirion entry (HIV-1 gp41 (HXB2 strain) [3]) | IC50 (JRFL), pseudovirion entry (HIV-1 gp41 (JRFL strain) [4]) | also measured |
| --- | --- | --- | --- | --- |
| Ac-KG[dA][dC][dD][dY][dP][dE][dW][dQ][dW][dL][dC][dA][dA]-NH2 (disulfide 4-13 (inferred); not fully specified (residue 1)) [PEG-PIE7] | 940 nM | – | – | fold reduction in potency against unmodified PIE7, viral entry (HXB2) (HIV-1 gp41 (HXB2 strain) [1]): ~1.5 fold |
| Ac-[dK][dK]G[dA][dC][dE][dL][dL]G[dW][dE][dW][dA][dW][dL][dC][dA][dA]-NH2 (disulfide 5-16 (inferred)) [D10-p5] | 9510 nM | – | – | – |
| Ac-[dK]G[dA][dC][dD][dY][dP][dE][dW][dR][dW][dL][dC][dA][dA]-NH2 (disulfide 4-13 (inferred)) [PIE2] | 1320 nM | – | – | – |
| Ac-[dK]G[dA][dC][dD][dY][dK][dE][dW][dQ][dW][dL][dC][dA][dA]-NH2 (disulfide 4-13 (inferred)) [PIE8] | 1680 nM | – | – | – |
| Ac-[dK][dK]G[dA][dC][dD][dY][dP][dE][dW][dR][dW][dL][dC][dA][dA]-NH2 (disulfide 5-14 (inferred)) [2K-PIE2] | 2570 nM | – | – | fold decrease in fold potency against PIE2, viral entry (HXB2) (HIV-1 gp41 (HXB2 strain) [1]): ~2 fold |
| G[dA][dC][dD][dY][dP][dE][dW][dQ][dW][dL][dC][dA][dA]G[dK] (disulfide 3-12 (inferred); also: three peptides attached directly to central scaffold TSAT, site not given here) [PIE7-GK short claw] | – | 0.234 nM | 86.6 nM | – |
| Ac-[dK]G[dA][dC][dD][dY][dP][dE][dW][dQ][dW][dL][dC][dA][dA]-NH2 (disulfide 4-13 (inferred); also: dimer: N-terminal Lys of both peptides joined by Bis-dPEG9 NHS ester crosslinker) [PEG-(PIE7)2] | 1.9 nM | 1.9 nM | 2300 nM | fold improvement of IC50 over the corresponding monomer (HIV-1 gp41 (HXB2 strain) [1]): ~325 fold |
| C5C(PIE7-GK)3 (disulfide I:3-I:12, II:3-II:12 (inferred); also: trimer: two chain 1 copies joined via C-terminal Lys by PEG5 spacers to the C-terminal Lys of central chain 2) peptide 1: G[dA][dC][dD][dY][dP][dE][dW][dQ][dW][dL][dC][dA][dA]G[dK] peptide 2: G[dA][dC][dD][dY][dP][dE][dW][dQ][dW][dL][dC][dA][dA]G[dK][dK] | – | 0.13 nM | 6.73 nM | fold difference in potency against JRFL between C5C-PIE7-trimer and N9N-PIE7-trimer (HIV-1 gp41 (JRFL strain) [5]): ~35 fold |
| Ac-[dK]G[dA][dC][dD][dY][dP][dE][dW][dR][dW][dL][dC][dA][dA][dA]-NH2 (disulfide 4-13 (inferred)) [PIE2-AAA] | 1440 nM | – | – | – |
| G[dA][dC][dD][dY][dP][dE][dW][dQ][dW][dL][dC][dA][dA]G[dK] (disulfide 3-12 (inferred); also: three peptides attached to central scaffold LC-TSAT (six-atom spacer), site not given here) [PIE7-GK long claw] | – | 0.124 nM | 20.6 nM | – |
| Ac-[dK]G[dA][dC][dD][dY][dP][dE][dW][dR][dW][dL][dC][dA][dA][dA]-NH2 (disulfide 4-13 (inferred); also: dimer: N-terminal Lys of both peptides joined by bis(NHS-ester)PEG crosslinker) [PEG-(PIE2-AAA)2] | – | – | – | IC50 (HXB2), single-cycle viral infectivity assay (HIV-1 gp41 (HXB2 strain) [1]): 21 nM; fold improvement of IC50 over the corresponding monomer (HIV-1 gp41 (HXB2 strain) [1]): ~70 fold |
| Ac-[dK]G[dA][dC][dD][dY][dP][dE][dW][dQ][dW][dL][dC][dA][dA]-NH2 (disulfide 4-13 (inferred)) [PIE7] | 620 nM | 620 nM | 24000 nM | fold potency against D10-p5, viral entry (HXB2) (HIV-1 gp41 (HXB2 strain) [1]): ~15 fold; IC50 (JRFL), viral entry (HIV-1 gp41 (JRFL strain) [5]): 24400 nM; fold reduction in potency against JRFL compared with HXB2 (HIV-1 gp41 (JRFL strain) [5]): ~40 fold |
